{
  "source": "patent US20070077212A1",
  "about": "“Protein with activity of hydrolyzing amylopectin, starch, glycogen and amylose, gene encoding the same, cell expressing the same, and production method thereof” (LIFENZA CO., LTD., priority 2004, published 2007)",
  "format_in_all_cases": "biochemical",
  "key": {"[1]": {"assay": "Relative substrate specificity of LSA enzyme: starch", "protocol": "(§1) The reducing value of the carbohydrolase was determined by a DNS (3,5-dinitrosalicylic acid) method in combination with a copper-bicinchoninate method. That is, 100 μl of copper-bicinchoninate was added to 100 μl of an enzyme solution, and allowed to react at 80C. for 35 min, followed by being cooled for about 15 min. Absorbance was measured at 560 nm."}, "[2]": {"assay": "Relative substrate specificity of LSA enzyme: dextran", "protocol": "as §1"}, "[3]": {"assay": "Activity staining on starch-containing PAGE gel", "details": "30 min at 37° C.", "protocol": "For sodium dodecyl sulfate-polyacrylamide gel electrophoresis (SDS-PAGE), protein samples were loaded onto 10% polyacrylamide gel in Tris-glycine buffer (pH 8.8). The polyacrylamide gel contained 1% starch in order to detect whether the protein samples could degrade starch polysaccharide. After completion of the electrophoresis, SDS was removed by washing the gel with 50 mM Tris-HCl buffer (pH 8.0) and a 20% 2-propanol solution for 1 hour. The gel was immersed in a reaction buffer (50 mM sodium acetate, 5 mM CaCl2, pH 5) at 37° C. for […] and then in an iodide solution (0.3% iodide, 3% potassium iodide) for 10 min, and washed with distilled water. The starch hydrolyzing activity was identified by the appearance of a clear zone against a brown background.\nFollowing IPTG induction in E. coli, the cells were harvested, and disrupted by sonication. Proteins were purified using His-tagged affinity column and analyzed by SDS-PAGE (10%) (FIG. 3, lane 1). The band for the mainly expressed protein corresponded to 73 kDa (LSA+His-tag). To examine the ability of the purified protein to degrade polysaccharides such as starch, electrophoresis was carried out using a PAGE gel containing starch. After completion of the electrophoresis, the gel was allowed to stand for 30 min at 37° C. and stained with an iodine solution. […]"}, "[4]": {"assay": "Relative substrate specificity of LSA enzyme: glycogen", "protocol": "as §1"}, "[5]": {"assay": "Relative substrate specificity of LSA enzyme: amylose", "protocol": "as §1"}, "[6]": {"assay": "Relative substrate specificity of LSA enzyme: pullulan", "protocol": "as §1"}, "[7]": {"assay": "Relative substrate specificity of LSA enzyme: amylopectin", "protocol": "as §1"}, "[8]": {"assay": "Relative substrate specificity of LSA enzyme: amylodextrin", "protocol": "as §1"}, "[9]": {"assay": "Assay for optimal pH and temperature and stability of enzyme", "protocol": "as §1\nThe enzyme LSA was assayed for optimal pH by measuring reaction rates in the range of pH 3-9 at intervals of pH 1.0. For this purpose, 2OmM citrate phosphate buffer (pH 4.0), citrate/phosphate buffer (pH 5-6) and sodium phosphate buffer (pH 7-9) were used. After reaction at 37° C. for […], the carbohydrolase activity of the enzyme was determined by a DNS method. Also, the pH stability of the enzyme was measured after the enzyme was added to each buffer and allowed to stand for 3 hours at 22° C.\nThe optimal temperature of the enzyme was determined by measuring the reaction rates of the enzyme which had been allowed to stand for 30 min at various temperatures (20-80° C., 10C. interval). […] 1% (w/v) starch was used as a substrate in determining the activity and stability of the enzyme."}, "[10]": {"assay": "TLC analysis of starch hydrolysis products", "details": "2% starch", "text": "(§2) Subsequently, the malto oligosaccharides were degraded into maltopentaose and lower oligosaccharides."}, "[11]": {"assay": "Relative substrate specificity of LSA enzyme: alpha-cyclodextrin", "protocol": "as §1"}, "[12]": {"assay": "TLC analysis of reaction with maltooligosaccharide series", "details": "mixture of maltooligosaccharide series", "protocol": "FIG. 8 is a photograph of a TLC result showing the enzymatic activity of the LSA of the present invention in which starch samples (1% w/v) are analyzed, along with maltodextrin (Mn), before and after being hydrolyzed by the enzyme (lanes 1 and 2 in panel A, respectively) and maltooligosaccharide samples (1% w/v) are analyzed after purified LSA is allowed to react with a series of maltooligosaccharides including G1 (glucose) to G7 (maltoheptaose) (lanes 1 to 7 in panel B, respectively).\nas §2"}, "[13]": {"assay": "Effect of metal ions, chelating agents and denaturants on LSA enzyme activity", "protocol": "as §1\nEffects of EDTA, EGTA and metal ions on enzyme activity were measured. EDTA and EGTA were each used at a final concentration of 1 mM. As for metal ions, they included ZnCl2, CuS04, CaCl2 and MgCl2 and were used at a final concentration of 5 mM. The enzyme activity was also measured in the presence of dodesyl sulfate (SDS, 0.1%, 0.5%, 1%, 2%), urea (2M), acetone (0-80%) and ethanol (0-70%). For the measurement, the enzyme was allowed to react at 37° C. for 30 min with 2% starch as a substrate."}},
  "note": "“Also recorded” adds a separate entry of the source.",
  "data": [
    {"molecule": "LSA: carbohydrolase derived from Lipomyces starkeyi, amino acid sequence SEQ. ID. No. 1, expressed in E. coli; hydrolyzes amylopectin, starch, glycogen and amylose (protein, E. coli BL21(DE3)pLysS, ID; No. 1, expressed in E. coli; hydrolyzes amylopectin, starch, glycogen and amylose) MLLINFFIAVLGVISLSPIVVARYILRRDCTTVTVLSSPESVTSSNHVELASHEMCDSTLSASLYIYNDDYDKIVTLYYLTSSGTTGSVTASYSSSLSNNWELWSLSAPAADAVEITGASYVDSDASATYATSFDIPLTTTTTSSSSASATSTSSLTTTSSVSISVSVPTGTAANWRGRAIYEIVTDRFARTDGSTTYLCDVTDRVYCGGSYEGIINMLDYIEGMGFTAIWISPIVENIPDDTGYGYAYHGYWMKDIFALNTNFGTADDLIALATELHNRGMYLMVDIVVNHFAFSGSHADVDYSEYFPYSSEDYFHSFCWITDYSNETNVEQCWLGDDTVPLVDVNTELDTVKSEYQSWVEELIANYSIDGLRIDTVKHVEMDFWAPFEEAAGIYAVGEVFDGDPSYTCPYEENLDGVLNYPVYYPVVSAFESVSGSVSSLVDMIDTLKSECTDTTLLGSFLENEDNPRFPSYTSDESLIKNAIAFTMLSDGIPIIYYGEEQGLNGGNDPYNREALWLTGYSTTSTFYKYIASLNEIRNEAIYKDDTYLTYENWVIYSDSTTIAMRKGFTGNEIITVLSNLGTSGSSYTLTLSNTGYTASSVVYEILTCTAVTVDSSGNLAVPMSSGLPKVFYEESQLVGSGICSM", "values": [
      {"measurement": "degradation of starch (soluble) (in words)", "setting": "[1]", "result": "strongly"},
      {"measurement": "Relative Activity (%)", "setting": "[1]; substrate Starch", "result": 100, "unit": "%"},
      {"measurement": "degradation of dextran (in words)", "setting": "[2]", "result": "degrade; also recorded: weakly"},
      {"measurement": "Relative Activity (%)", "setting": "[2]; substrate Dextran, relative to starch", "result": 4, "unit": "%"},
      {"measurement": "starch degradation on gel, iodine staining", "setting": "[3]", "result": "clear zone"},
      {"measurement": "degradation of glycogen (in words)", "setting": "[4]", "result": "strongly"},
      {"measurement": "Relative Activity (%)", "setting": "[4]; substrate Glycogen, relative to starch", "result": 80, "unit": "%"},
      {"measurement": "degradation of amylose (in words)", "setting": "[5]", "result": "weakly"},
      {"measurement": "Relative Activity (%)", "setting": "[5]; substrate Amylose, relative to starch", "result": 41, "unit": "%"},
      {"measurement": "degradation of pullulan (in words)", "setting": "[6]", "result": "degrade; also recorded: weakly"},
      {"measurement": "Relative Activity (%)", "setting": "[6]; substrate Pullulan, relative to starch", "result": 3, "unit": "%"},
      {"measurement": "degradation of amylopectin (in words)", "setting": "[7]", "result": "strongly"},
      {"measurement": "Relative Activity (%)", "setting": "[7]; substrate Amylopectin, relative to starch", "result": 141, "unit": "%"},
      {"measurement": "degradation of amylodextrin (in words)", "setting": "[8]", "result": "weakly"},
      {"measurement": "Relative Activity (%)", "setting": "[8]; substrate Amylodextrin, relative to starch", "result": 17, "unit": "%"},
      {"measurement": "optimum pH", "setting": "[9]", "result": 6, "unit": "pH"},
      {"measurement": "pH range in which activity is 90% of its maximum", "setting": "[9]", "result": "5-8 pH"},
      {"measurement": "pH range in which amylase activity is kept stably", "setting": "[9]", "result": "5-8 pH"},
      {"measurement": "temperature of optimal activity", "setting": "[9]; 1% (w/v) starch", "result": 40, "unit": "°C"},
      {"measurement": "temperature range of stability", "setting": "[9]; 1% (w/v) starch", "result": "20-50 °C"},
      {"measurement": "activity after incubation, relative to stable temperatures", "setting": "[9]; incubation at 60° C. for 3 hours", "result": 70, "unit": "%"},
      {"measurement": "hydrolysis products, early stage of reaction", "setting": "[10]", "result": "oligosaccharides larger than maltopentaose were produced"},
      {"measurement": "hydrolysis products, final", "setting": "[10]", "result": "maltotriose and maltotetraose were predominant"},
      {"measurement": "degradation of a-cyclodextrin (in words)", "setting": "[11]", "result": "degrade; also recorded: weakly"},
      {"measurement": "Relative Activity (%)", "setting": "[11]; substrate alpha-CD, relative to starch", "result": 4, "unit": "%"},
      {"measurement": "degradation products of G6", "setting": "[12]", "result": "G2+G4 or into G3+G3"},
      {"measurement": "hydrolysis of G2", "setting": "[12]", "result": "did not hydrolyze"},
      {"measurement": "hydrolysis of G3", "setting": "[12]", "result": "did not hydrolyze"},
      {"measurement": "effect on enzyme activity", "setting": "[13]; 1 mM EDTA", "result": "inhibited"},
      {"measurement": "increase of starch degradation activity", "setting": "[13]; 5 mM Ca+", "result": "about 315%"},
      {"measurement": "effect on starch degradation activity", "setting": "[13]; 5 mM Cu^2+", "result": "inhibited"},
      {"measurement": "increase of starch degradation activity", "setting": "[13]; 5 mM Mg^2+", "result": "~220", "unit": "%"},
      {"measurement": "increase in activity", "setting": "[13]; 10-20% ethanol solution", "result": "1.25-1.33 fold"},
      {"measurement": "increase in activity", "setting": "[13]; 10-40% acetone", "result": "1.03-1.22 fold"},
      {"measurement": "activity relative to optimal activity", "setting": "[13]; 60% acetone", "result": "lower than 50%"},
      {"measurement": "activity relative to optimal activity", "setting": "[13]; 60% ethanol", "result": "lower than 50%"},
      {"measurement": "Relative Activity (%)", "setting": "[13]; Acetone 20%", "result": 122, "unit": "%"},
      {"measurement": "Relative Activity (%)", "setting": "[13]; Acetone 30%", "result": 115, "unit": "%"},
      {"measurement": "Relative Activity (%)", "setting": "[13]; CaCl2 5 mM", "result": 315, "unit": "%"},
      {"measurement": "Relative Activity (%)", "setting": "[13]; CaCl2 + EDTA 5 mM/1 mM", "result": 185, "unit": "%"},
      {"measurement": "Relative Activity (%)", "setting": "[13]; CuSO4 5 mM", "result": 20, "unit": "%"},
      {"measurement": "Relative Activity (%)", "setting": "[13]; CuSO4 + EDTA 5 mM/1 mM", "result": 12, "unit": "%"},
      {"measurement": "Relative Activity (%)", "setting": "[13]; EDTA 1 mM", "result": 46, "unit": "%"},
      {"measurement": "Relative Activity (%)", "setting": "[13]; EGTA 1 mM", "result": 105, "unit": "%"},
      {"measurement": "effect on enzyme activity", "setting": "[13]; EGTA (1 mM; EGTA-containing solution)", "result": "not inhibited; also recorded: not influenced"},
      {"measurement": "Relative Activity (%)", "setting": "[13]; MgCl2 5 mM", "result": 220, "unit": "%"},
      {"measurement": "Relative Activity (%)", "setting": "[13]; MgCl2 + EDTA 5 mM/1 mM", "result": 129, "unit": "%"},
      {"measurement": "effect on starch degradation activity", "setting": "[13]; SDS", "result": "completely inhibited"},
      {"measurement": "Relative Activity (%)", "setting": "[13]; SDS 0.1%", "result": 66, "unit": "%"},
      {"measurement": "Relative Activity (%)", "setting": "[13]; SDS 0.5%", "result": 49, "unit": "%"},
      {"measurement": "Relative Activity (%)", "setting": "[13]; SDS 1%", "result": 24, "unit": "%"},
      {"measurement": "Relative Activity (%)", "setting": "[13]; SDS 2%", "result": 12, "unit": "%"},
      {"measurement": "Relative Activity (%)", "setting": "[13]; Urea 2M", "result": 115, "unit": "%"},
      {"measurement": "effect on starch degradation activity", "setting": "[13]; acetone", "result": "increased"},
      {"measurement": "Relative Activity (%)", "setting": "[13]; additive: None, 2% starch, 37° C., 30 min", "result": 100, "unit": "%"},
      {"measurement": "effect on starch degradation activity", "setting": "[13]; urea", "result": "increased"}
    ]}
  ]
}
